This series concerns the molecule itself. In words: low-temperature SDS-PAGE; aorta lysates of WT and LSP1-KO mice in NP40-based non-denaturing buffer (crude or after eNOS immunoprecipitation), not boiled, no reducing agent, 7% gel at 4 °C; anti-eNOS immunoblot; dimer to monomers. (In western blotting, separated proteins are transferred to a membrane and probed.)

B1: endothelial nitric oxide synthase (eNOS), mouse, native (enzyme, mouse (endogenous in aorta), UniProt P70313 1-1202, looked up)
chain: MGNLKSVGQEPGPPCGLGLGLGLGLCGKQGPASPAPEPSQAPAPPSPTRPAPDHSPPLTRPPDGPRFPRVKNWEVGSITYDTLSAQAQQDGPCTSRRCLGSLVFPRKLQSRPTQGPSPTEQLLGQARDFINQYYNSIKRSGSQAHEQRLQEVEAEVAATGTYQLRESELVFGAKQAWRNAPRCVGRIQWGKLQVFDARDCRTAQEMFTYICNHIKYATNRGNLRSAITVFPQRCPGRGDFRIWNSQLIRYAGYRQQDGSVRGDPANVEITELCIQHGWTPGNGRFDVLPLLLQAPDEPPELFTLPPEMVLEVPLEHPTLEWFAALGLRWYALPAVSNMLLEIGGLEFPAAPFSGWYMSSEIGMRDLCDPHRYNILEDVAVCMDLDTRTTSSLWKDKAAVEINVAVLHSYQLAKVTIVDHHAATASFMKHLENEQKARGGCPADWAWIVPPISGSLTPVFHQEMVNYFLSPAFRYQPDPWKGSAAKGAGITRKKTFKEVANAVKISASLMGTVMAKRVKATILYGSETGRAQSYAQQLGRLFRKAFDPRVLCMDEYDVVSLEHEALVLVVTSTFGNGDPPENGESFAAALMEMSGPYNSSPRPEQHKSYKIRFNSVSCSDPLVSSWRRKRKESSNTDSAGALGTLRFCVFGLGSRAYPHFCAFARAVDTRLEELGGERLLQLGQGDELCGQEEAFRGWAQAAFQAACETFCVGEDAKAAARDIFSPKRSWKRQRYRLSTQAESLQLLPGLTHVHRRKMFQATILSVENLQSSKSTRATILVRLDTGGQEGLQYQPGDHIGVCPPNRPGLVEALLSRVEDPPPSTEPVAVEQLEKGSPGGPPPGWVRDPRLPPCTLRQALTYFLDITSPPSPRLLRLLSTLAEESSEQQELEALSQDPRRYEEWKWFSCPTLLEVLEQFPSVALPAPLILTQLPLLQPRYYSVSSAPSAHPGEIHLTIAVLAYRTQDGLGPLHYGVCSTWMSQLKAGDPVPCFIRGAPSFRLPPDPNLPCILVGPGTGIAPFRGFWQDRLHDIEIKGLQPAPMTLVFGCRCSQLDHLYRDEVLDAQQRGVFGQVLTAFSRDPGSPKTYVQDLLRTELAAEVHRVLCLEQGHMFVCGDVTMATSVLQTVQRILATEGGMELDEAGDVIGVLRDQQRYHEDIFGLTLRTQEVTSRIRTQSFSLQERQLRGAVPWSFDPPGPEIPGS
notes: mouse endothelial nitric oxide synthase, native protein of the aorta; dimer band at 260 kDa; Written as the protomer, for the row of the protein with itself; also called mouse eNOS; WT eNOS; source: endogenous, aorta lysate of 129/SvJ wild-type mice (also LSP1-KO mice)
Regarding B1, the “stoichiometry N” value turned out to be 2.

As a reminder, the stoichiometry N is the number of molecules, sites or subunits per partner or assembly.

Source of the values: publication PMC10813790, “Lymphocyte-Specific Protein 1 Regulates Expression and Stability of Endothelial Nitric Oxide Synthase” (Biomolecules, 2024).
